The labels stand for the following.
B1: MaGWD1 probe (dsDNA)
DNA 1: CTAATCACATGATGGTGTGTGGCCGCCATCATTCTCTCCCAAGCAACC
DNA 2: GGTTGCTTGGGAGAGAATGATGGCGGCCACACACCATCATGTGATTAG
B2: MaXYL23-like probe (dsDNA)
DNA 1: GGCAATCAGTCGGAGGAGGAGCCGCCCGATTTGGTGCACTATCATC
DNA 2: GATGATAGTGCACCAAATCGGGCGGCTCCTCCTCCGACTGATTGCC
B3: MaPL8 probe (dsDNA)
DNA 1: ATATCTGTGTGCTCTTGCGAGGCGGCTGGACTTTCCTGCACGCAAT
DNA 2: ATTGCGTGCAGGAAAGTCCAGCCGCCTCGCAAGAGCACACAGATAT
B4: MaSGR1 probe (dsDNA)
DNA 1: ATCATATTTCTGAATTAAGGTACTGGCGGCACATCGATATGGTATC
DNA 2: GATACCATATCGATGTGCCGCCAGTACCTTAATTCAGAAATATGAT
B5: MaEXP-A8 probe (dsDNA)
DNA 1: GTTGGTTCATAAGGTGCTCCGGCGGCATGTGCTGCAGACACGAAGT
DNA 2: ACTTCGTGTCTGCAGCACATGCCGCCGGAGCACCTTATGAACCAAC
B6: MaAMY3 probe (dsDNA)
DNA 1: CGGACTCACGCCACACCACAGCCGCCCCTGACGCAATTAGCGTCGA
DNA 2: TCGACGCTAATTGCGTCAGGGGCGGCTGTGGTGTGGCGTGAGTCCG

Chain of GST-MaERF012 (A0A804KA32 entry or part of it): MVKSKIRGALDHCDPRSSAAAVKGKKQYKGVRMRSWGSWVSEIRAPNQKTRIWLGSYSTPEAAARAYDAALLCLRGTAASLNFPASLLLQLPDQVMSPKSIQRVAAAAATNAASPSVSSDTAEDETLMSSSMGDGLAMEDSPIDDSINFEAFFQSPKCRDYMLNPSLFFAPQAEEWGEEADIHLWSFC

The series concerns the target GST-MaERF012 (Musa acuminata 'Fenjiao' banana, UniProt A0A804KA32 1-188). Description: EMSA; LightShift Chemiluminescent EMSA Kit; buffer, salt, pH and temperature not stated. The conditions noted are these: protein: recombinant; tags: N-terminal GST (pGEX-4T-1); label: biotin 3' end; blunt. A general note: In EMSA bound probe runs differently from free probe, usually more slowly.
As to B1, the binding result is recorded as “binds”.

For B2, the binding result was “binds”.

B3: the binding result is reported as “binds”.

Turning to B4, the binding result was “binds”.

In the case of B5, the binding result is recorded as “binds”.

For the molecule B6, the binding result is on record as “binds”.

Values taken from publication PMC9738063, “Ethylene Response Factor MaERF012 Modulates Fruit Ripening by Regulating Chlorophyll Degradation and Softening in Banana”.
